Experimental data published in US20230212554A1 (published 2023).
Where a chain is given by its changes, count along the chain named.

T1: NPB1 (influenza B virus B/Houston/B720/2004, UniProt O36433 1-548)
T1 chain: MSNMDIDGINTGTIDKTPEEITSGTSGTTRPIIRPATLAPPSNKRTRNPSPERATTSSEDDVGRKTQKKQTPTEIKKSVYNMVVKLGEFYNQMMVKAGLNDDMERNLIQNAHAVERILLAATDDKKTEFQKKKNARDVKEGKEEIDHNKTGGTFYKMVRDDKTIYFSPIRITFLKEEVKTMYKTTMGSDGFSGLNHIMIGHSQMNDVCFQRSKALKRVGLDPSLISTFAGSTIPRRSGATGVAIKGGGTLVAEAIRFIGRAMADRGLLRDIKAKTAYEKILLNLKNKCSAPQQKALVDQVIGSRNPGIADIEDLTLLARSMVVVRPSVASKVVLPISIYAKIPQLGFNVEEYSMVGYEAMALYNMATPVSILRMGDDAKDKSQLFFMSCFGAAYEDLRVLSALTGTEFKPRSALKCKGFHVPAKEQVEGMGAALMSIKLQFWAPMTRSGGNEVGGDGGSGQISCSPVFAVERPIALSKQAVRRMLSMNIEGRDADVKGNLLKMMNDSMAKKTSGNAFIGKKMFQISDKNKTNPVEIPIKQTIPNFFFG

T2: NPA1 (influenza A virus A/Taiwan/1/72 (H3N2), UniProt P16982 1-489)
T2 chain: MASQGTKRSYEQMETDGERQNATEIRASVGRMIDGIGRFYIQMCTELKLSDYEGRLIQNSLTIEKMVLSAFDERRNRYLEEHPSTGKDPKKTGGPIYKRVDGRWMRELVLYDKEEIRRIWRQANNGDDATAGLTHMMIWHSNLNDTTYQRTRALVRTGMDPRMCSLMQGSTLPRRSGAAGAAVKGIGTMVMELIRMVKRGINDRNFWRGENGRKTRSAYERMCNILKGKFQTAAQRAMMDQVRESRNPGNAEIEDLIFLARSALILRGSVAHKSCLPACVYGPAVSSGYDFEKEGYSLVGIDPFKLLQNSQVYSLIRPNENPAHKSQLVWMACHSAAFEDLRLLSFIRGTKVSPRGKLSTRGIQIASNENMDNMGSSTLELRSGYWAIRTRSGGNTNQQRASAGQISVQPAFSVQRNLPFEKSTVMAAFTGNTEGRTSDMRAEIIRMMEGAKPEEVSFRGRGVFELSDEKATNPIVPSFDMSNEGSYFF

B1: NP10 (antibody, V domains shown)
VH: EVQLVESGGGLVQPGGSLRLSCAASGFTIDNGSIHWVRQAPGKGLEWVAWIWPFGGSTSYADSVKGRFTISADTSKNTAYLQMNSLRAEDTAVYYCARSWSSGYDYWGQGTLVTVSS
VL: DIQMTQSPSSLSASVGDRVTITCRASQDVSWSVAWYQQKPGKAPKLLISGSTWLYSGVPSRFSGSGSGTDFTLTISSLQPEDFATYYCQQYSNSPITFGQGTKVEIKR
B2: NP13 (antibody, V domains shown)
VH: EVQLVESGGGLVQPGGSLRLSCAASGFTINNYGIHWVRQAPGKGLEWVASIGPYGGSTYYADSVKGRFTISADTSKNTAYLQMNSLRAEDTAVYYCARFGYFNWLDMDYWGQGTLVTVSS
VL: DIQMTQSPSSLSASVGDRVTITCRASQDVGYWVAWYQQKPGKAPKLLISSASGLYSGVPSRFSGSGSGTDFTLTISSLQPEDFATYYCQQGWDWPITFGQGTKVEIKR
B3: NP15 (antibody, V domains shown)
VH: EVQLVESGGGLVQPGGSLRLSCAASGFTISNWYIHWVRQAPGKGLEWVAGIGPYGGSTYYADSVKGRFTISADTSKNTAYLQMNSLRAEDTAVYYCARFHWDHLHGMDYWGQGTLVTVSS
VL: B1 VL with S30D, W31N, S32N, G50Y, W53G, S92W, S94Y
B4: NP25 (antibody, V domains shown)
VH: EVQLVESGGGLVQPGGSLRLSCAASGFTIGGGFIHWVRQAPGKGLEWVASIWPYWGFTYYADSVKGRFTISADTSKNTAYLQMNSLRAEDTAVYYCARGSYGYSDYWGQGTLVTVSS
VL: B2 VL with S26G, G30S, Y31S, W32G, S50W, A51T, G53F, G91Y, W92Y, W94Y
B5: NP22 (antibody, V domains shown)
VH: EVQLVESGGGLVQPGGSLRLSCAASGFTISDWSIHWVRQAPGKGLEWVAGIWPYWGSTSYADSVKGRFTISADTSKNTAYLQMNSLRAEDTAVYYCARGFYSWFDYWGQGTLVTVSS
VL: B2 VL with G30F, Y31S, G53S, G91S, W94Y
B6: NP24 (antibody, V domains shown)
VH: B5 VH with S30D, S33Y, W52G, W55G, S57F, S59Y, F100Y, S102G, W103S
VL: B2 VL with Y31S, W32S, S49F, S50Y, A51T, G53S, W94S, I96V
B7: NP2 (antibody, V domains shown)
VH: EVQLVESGGGLVQPGGSLRLSCAASGFTIGGGGIHWVRQAPGKGLEWVAGIWPYWGYTFYADSVKGRFTISADTSKNTAYLQMNSLRAEDTAVYYCARFWHGNLDVMDYWGQGTLVTVSS
VL: B1 VL with S30Y, W31G, S32Y, S49Y, S51A, T52A, W53G, S94F, I96L
B8: NP20 (antibody, V domains shown)
VH: EVQLVESGGGLVQPGGSLRLSCAASGFTINGYSIHWVRQAPGKGLEWVASIGPYGGFTYYADSVKGRFTISADTSKNTAYLQMNSLRAEDTAVYYCAGFGFYYWGQGTLVTVSS
VL: B2 VL with W32G, S50G, G91Y, W92S, D93S, W94F, I96L
B9: NP23 (antibody, V domains shown)
VH: B8 VH with N30S, G31N, S33F, Y54F, Y59S, F99Y, Y102H
VL: B1 VL with S30D, W31D, S32G, S51A, T52R, S92Y, S94F, I96L
B10: NP11 (antibody, V domains shown)
VH: EVQLVESGGGLVQPGGSLRLSCAASGFTIDSYGIHWVRQAPGKGLEWVAWIGPSGGSTFYADSVKGRFTISADTSKNTAYLQMNSLRAEDTAVYYCARGYFWFFDYWGQGTLVTVSS
VL: B1 VL with W31S, S32W, G50W, T52G, W53Y, Y91G, S92F, S94Y, I96L
B11: NP4 (antibody, V domains shown)
VH: EVQLVESGGGLVQPGGSLRLSCAASGFTISNSSIHWVRQAPGKGLEWVAGIGPSGGYTFYADSVKGRFTISADTSKNTAYLQMNSLRAEDTAVYYCARFHSHNSYYSYSHYGYMDYWGQGTLVTVSS
VL: B1 VL with S30G, S32G, S51P, T52S, W53S, S92F, S94Y
B12: NP14 (antibody, V domains shown)
VH: EVQLVESGGGLVQPGGSLRLSCAASGFTIDNGGIHWVRQAPGKGLEWVASIWPSWGSTSYADSVKGRFTISADTSKNTAYLQMNSLRAEDTAVYYCARFNFGVFGVMDYWGQGTLVTVSS
VL: B1 VL with S30D, W31N, S32D, S49Y, S51P, T52R, W53G, N93S, S94W, I96L
B13: NP9 (antibody, V domains shown)
VH: EVQLVESGGGLVQPGGSLRLSCAASGFTINNGWIHWVRQAPGKGLEWVAGIGPYWGFTSYADSVKGRFMISADTSKNTAYLQMNSLRAEDTAVYYCARFDSDHDHHYSYYYYYDNGYMDYWGQGTLVTVSS
VL: B1 VL with S30W, W31F, S49Y, S51T, W53S, S92F, S94Y, I96L
B14: NP12 (antibody, V domains shown)
VH: B4 VH with G30D, G31N, F33Y, Y54S, F57S, S100F, G102Y, S104G
VL: B2 VL with Y31G, W32N, A51T, S52A, G91Y, W92Y, W94F, I96L
B15: NP19 (antibody, V domains shown)
VH: EVQLVESGGGLVQPGGSLRLSCAASGFTISSWGIHWVRQAPGKGLEWVAGIGPFWGYTSYADSVKGRFTISADTSKNTAYLQMNSLRAEDTAVYYCARFGVDNYGYMDYWGQGTLVTVSS
VL: B1 VL with W31G, S32W, G50W, W53G, S92F, S94F, I96V
B16: NP21 (antibody, V domains shown)
VH: EVQLVESGGGLVQPGGSLRLSCAASGFTINGYGIHWVRQAPGKGLEWVAGIWPYGGSTFYADSVKGRFTISADTSKNTAYLQMNSLRAEDTAVYYCARFYNNHGGIMDYWGQGTLVTVSS
VL: B1 VL with S30Y, W31F, S32Y, S49Y, T52R, S94F, I96V
B17: NP3 (antibody, V domains shown)
VH: B16 VH with N30S, G31N, Y54F, S57F, F59S, Y100H, N101W, H103D, G104H, I106Y
VL: B1 VL with S30G, S32Y, S49Y, G50S, S51T, W53G, S92Y, S94Y
B18: NP8 (antibody, V domains shown)
VH: EVQLVESGGGLVQPGGSLRLSCAASGFTINSFGIHWVRQAPGKGLEWVAGIGPFGGSTFYADSVKGRFTISADTSKNTAYLQMNSLRAEDTAVYYCARGFYWFDYWGQGTLVTVSS
VL: DIQMTQSPSSLSASVGDRVTITCRASQDVDDSVAWYQQKPGKAPKLLIYWTRYLYSGVPSRFSGSGSGTDFTLTISSLQPEDFATYYCQQGYNYPLTFGQGTKVEIKR
B19: NP7 (antibody, V domains shown)
VH: EVQLVESGGGLVQPGGSLRLSCAASGFTISNGGIHWVRQAPGKGLEWVAGIGPYGGFTSYADSVKGRFTISADTSKNTAYLQMNSLRAEDTAVYYCARFYSNYYGYHGVMDYWGQGTLVTVSS
VL: B1 VL with S30F, W31G, S32W, G50Y, T52A, W53S, S92F, S94Y, I96L
B20: NP5 (antibody, V domains shown)
VH: EVQLVESGGGLVQPGGSLRLSCAASGFTISNGSIHWVRQAPGKGLEWVAGIWPSGGSTSYADSVKGRFTISADTINNSAYLQMNSLRAEDTAVYYCARWNYWGQGTLVTVSS
VL: B18 VL with D30G, D31W, W50G, T51S, Y53W, Y94G

Molecular target: T3, NPA4 (influenza A virus …, UniProt A8C8J8 1-489)
Assay: ELISA on recombinant NP

Row | Binder | binding result
1 | B1 | no binding

Molecular target: T3, NPA4
Assay: ELISA on recombinant NP
Remark: another data set of the same source

Row | Binder | EC50 [nM]
2 | B2 | 0.07
3 | B3 | 0.35

Molecular target: T1, NPB1
Assay: ELISA on recombinant NP

Row | Binder | EC50 [nM]
4 | B4 | 0.1
5 | B5 | 0.27
6 | B6 | 0.05
7 | B7 | 1.37
8 | B8 | 0.04
9 | B9 | 0.06

Molecular target: NPA5 (influenza A virus A/Anhui/1/2005 …, UniProt Q6DPE5 1-489)
Assay: ELISA on recombinant NP

Row | Binder | EC50 [nM]
10 | B10 | 0.06
11 | B2 | 0.09
12 | B11 | 0.37
13 | B12 | 1.7
14 | B13 | 1.12
15 | B14 | 9.07
16 | B1 | 0.28

Molecular target: T2, NPA1
Assay: ELISA on recombinant NP

Row | Binder | EC50 [nM]
17 | B15 | 0.11
18 | B11 | 0.19
19 | B16 | 0.12
20 | B17 | 0.09
21 | B12 | 0.19
22 | B1 | 0.36

Molecular target: NPA2 (influenza A virus A/WSN/1933(H1N1), UniProt A4U6V6 1-489)
Assay: ELISA on recombinant NP

Row | Binder | EC50 [nM]
23 | B10 | 0.27
24 | B18 | 2.14
25 | B16 | 28.6
26 | B19 | 0.79
27 | B20 | 0.13
28 | B12 | 0.08
